The target in one experiment is AKAP18 (Homo sapiens) (UniProt Q9P0M2). Conditions: cited from earlier work.
The next experiment has as its target GST-AKAP18α (human). Put plainly: BLI; Octet RED96; anti-GST probes loaded with GST protein at 200 nM; room temperature; 50 mM Tris HCl, 200 mM NaCl, 5 mM DTT, 0.1% BSA, pH 8.0; steady-state analysis for KD. (Biolayer interferometry detects binding as a change in optical thickness at a sensor tip.)
Experiment [1] deals with full-length SPA17 (sperm autoantigenic protein 17), human (human) (UniProt Q15506). Nature of the experiment: SEC-MALS; Wyatt system on Superdex 200 Increase 10/300; 20 mM Tris, pH 8, 200 mM NaCl, 5 mM DTT; 0.5 ml/min. On the technique in general: In gel filtration, larger molecules generally elute earlier.

We go through 3 substances from paper PMC8339350.

Several values for one entry are separate records, joined by “and”; a condition that tells them apart may be missing. Equal values may be shown once.

As a reminder, the Kd is the constant that tells how readily two partners part at equilibrium. By stoichiometry N is commonly meant a count of units in the complex or per binding partner.

RIIα, sequence (P13861 2-404): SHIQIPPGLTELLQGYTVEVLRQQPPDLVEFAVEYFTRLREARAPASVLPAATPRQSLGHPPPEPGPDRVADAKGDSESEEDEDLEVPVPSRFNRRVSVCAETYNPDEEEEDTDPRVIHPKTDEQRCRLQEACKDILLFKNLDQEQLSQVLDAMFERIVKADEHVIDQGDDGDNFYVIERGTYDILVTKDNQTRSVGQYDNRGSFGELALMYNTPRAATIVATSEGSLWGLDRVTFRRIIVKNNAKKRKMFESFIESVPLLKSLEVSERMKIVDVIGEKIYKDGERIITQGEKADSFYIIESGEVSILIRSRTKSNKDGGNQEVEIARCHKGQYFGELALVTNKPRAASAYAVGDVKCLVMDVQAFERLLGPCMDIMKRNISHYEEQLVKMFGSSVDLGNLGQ

Regarding RIIα (from UniProt P13861), in the experiment with AKAP18 (Homo sapiens), the Kd is 31 nM.
In turn, “SPA17 1 to 75-ROPN1L 1 to 75 heterodimer (from UniProt Q15506 1-75; Q96C74 1-75) (complex)” had a Kd in the experiment with GST-AKAP18α (human) of 82 nM.
On to “full-length SPA17 (sperm autoantigenic protein 17), human (from UniProt Q15506 1-151) (natural protein)”, for which, in experiment [1], the stoichiometry N is 4 and 2.
